From patent US20250026792A1, “SELF-ASSEMBLING PEPTIDES WITH HYALURONIC ACID BINDING DOMAINS AND METHODS OF USE THEREOF” (Northwestern University, priority 2022, published 2025)

Assays:
collagen type I = biological target: T1, collagen type I (Rattus norvegicus, UniProt P02454+P02466); experiment: ECM specificity binding test, collagen type I coating; settings: 5.0 mg/ml peptide, FIG. 4
T1 construct: purchased Sigma-Aldrich
Description: (§1) Peptides were incubated 24 hours at 37° C. on collagens I-IV, elastin, hyaluronic acid, and Geltrex. Coatings (10 pig/cm^2) were previously dried overnight in milli-Q water. Overall significance was assessed using analysis of variance, with Tukey's multiple comparison post-hoc analysis between ECM groups where n=4.
(§2) Biotinylated peptides were custom synthesized by ABI Scientific, Inc. (Sterling, VA). Uranyl acetate and TEM grids were from Ted Pella, Inc (Redding, CA). Unless specified otherwise, all water used in these experiments was Milli-Q grade. HA (˜1 MDa), collagen types I (rat), II (chicken), III (human), and IV (mouse), elastin (bovine), deuterium oxide (D2O), acetic acid-d4, sodium acetate-d3, 3-(Trimethylsilyl)propionic-2,2,3,3-d6 (DSS-D6) acid sodium salt, and 2,2,2-trifluoroethanol (TFE) and were obtained from Sigma-Aldrich (St. Louis, MO). Streptavidin (Alexa Fluor 488 conjugate) and Geltrex were obtained from Thermo Fisher Scientific Inc. (Waltham, MA). […]
(§3) Hyaluronic acid, collagens I, II, III, and IV, elastin, and Geltrex were coated onto 96-well black plates (medium binding affinity) at 10 μg/cm^2 and were dried in milli-Q water at room temperature. […] The plates were read with a fluorescence microplate reader for fluorescence intensity (Ex 490 nm, Em 525 nm). All data were normalized to the background fluorescence intensity of Streptavidin-488.

collagen type IV = biological target: T2, collagen type IV (Mus musculus, UniProt P02463+P08122); experiment: ECM specificity binding test, collagen type IV coating; settings: 5.0 mg/ml peptide, FIG. 4
T2 construct: purchased Sigma-Aldrich
Description: as §1, §2, §3

elastin = biological target: T3, elastin (Bos taurus, UniProt P04985); experiment: ECM specificity binding test, elastin coating; parameters: species or system bovine; settings: 5.0 mg/ml peptide, FIG. 4
T3 construct: purchased Sigma-Aldrich
T3 sequence (P04985 27-747): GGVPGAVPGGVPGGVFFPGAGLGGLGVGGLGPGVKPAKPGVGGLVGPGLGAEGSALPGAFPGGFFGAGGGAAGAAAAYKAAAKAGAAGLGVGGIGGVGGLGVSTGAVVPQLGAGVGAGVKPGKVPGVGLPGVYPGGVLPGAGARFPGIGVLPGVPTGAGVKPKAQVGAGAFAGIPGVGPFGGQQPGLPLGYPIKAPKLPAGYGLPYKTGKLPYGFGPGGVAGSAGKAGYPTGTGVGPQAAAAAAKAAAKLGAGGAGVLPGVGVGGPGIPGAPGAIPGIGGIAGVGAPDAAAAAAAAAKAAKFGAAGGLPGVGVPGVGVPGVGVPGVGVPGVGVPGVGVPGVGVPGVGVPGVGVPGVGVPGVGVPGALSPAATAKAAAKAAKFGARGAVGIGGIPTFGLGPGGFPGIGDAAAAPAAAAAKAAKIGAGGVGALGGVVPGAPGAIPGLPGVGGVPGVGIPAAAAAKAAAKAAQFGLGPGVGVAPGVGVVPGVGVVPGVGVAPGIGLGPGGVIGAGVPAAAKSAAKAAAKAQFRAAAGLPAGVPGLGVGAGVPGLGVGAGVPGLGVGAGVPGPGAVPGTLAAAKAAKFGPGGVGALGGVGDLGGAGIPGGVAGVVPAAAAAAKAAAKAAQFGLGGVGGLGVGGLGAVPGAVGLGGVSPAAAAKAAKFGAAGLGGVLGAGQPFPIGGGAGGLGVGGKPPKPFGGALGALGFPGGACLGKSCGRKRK
Description: as §1
Biotinylated peptides were custom synthesized by ABI Scientific, Inc. (Sterling, VA). Uranyl acetate and TEM grids were from Ted Pella, Inc (Redding, CA). Unless specified otherwise, all water used in these experiments was Milli-Q grade. HA (˜1 MDa), collagen types I (rat), II (chicken), III (human), and IV (mouse), elastin (bovine), deuterium oxide (D2O), acetic acid-d4, sodium acetate-d3, 3-(Trimethylsilyl)propionic-2,2,3,3-d6 (DSS-D6) acid sodium salt, and 2,2,2-trifluoroethanol (TFE) and were obtained from Sigma-Aldrich (St. Louis, MO). Streptavidin (Alexa Fluor 488 conjugate) and Geltrex were obtained from Thermo Fisher Scientific Inc. (Waltham, MA). Sodium hyaluronate (5 and 60 KDa) was purchased from Lifecore Biomedical LLC (Chaska, MN). In reference to terminology, N and C termini is used to describe the amino terminal (N) and the carboxyl terminal (C) of the peptide. The biotinylated peptides are used in every experiment.
Hyaluronic acid, collagens I, II, III, and IV, elastin, and Geltrex were coated onto 96-well black plates (medium binding affinity) at 10 μg/cm^2 and were dried in milli-Q water at room temperature. N-termini biotinylated peptides were added to coated plates at 0, 1, 2.5, 5 and 10 mg/ml overnight at 37° C. in phosphate buffered saline (PBS), pH 7.4, after which the plates were washed three times with PBS. Fluorescent streptavidin-488 (4 μg/mL) was added to each well and incubated at 37° C. temperature for 24 hours, then thoroughly washed with PBS. The plates were read with a fluorescence microplate reader for fluorescence intensity (Ex 490 nm, Em 525 nm). All data were normalized to the background fluorescence intensity of Streptavidin-488.

[1] = tested on: extracellular matrix (ECM) components: Collagen type I, II, III and IV, elastin, hyaluronic acid and Geltrex; experiment: ECM specificity binding test, whole panel; settings: 5.0 mg/ml peptide, FIG. 4
[2] = Circular dichroism (CD) of peptides; assay type: physicochemical; settings: 20 mM Sodium Cacodylate; for Ellipticity ratio (222 nm/208 nm) / Ellipticity 208 nm / Ellipticity 222 nm: 1.25 mg/mL; for Ellipticity 208 nm / Ellipticity 222 nm: CD data given as [θ]M×10^−3; for wavelength Minimum of CD profile: 5.0 mg/mL

T1 sequence (P02454 152-1207 limits assumed): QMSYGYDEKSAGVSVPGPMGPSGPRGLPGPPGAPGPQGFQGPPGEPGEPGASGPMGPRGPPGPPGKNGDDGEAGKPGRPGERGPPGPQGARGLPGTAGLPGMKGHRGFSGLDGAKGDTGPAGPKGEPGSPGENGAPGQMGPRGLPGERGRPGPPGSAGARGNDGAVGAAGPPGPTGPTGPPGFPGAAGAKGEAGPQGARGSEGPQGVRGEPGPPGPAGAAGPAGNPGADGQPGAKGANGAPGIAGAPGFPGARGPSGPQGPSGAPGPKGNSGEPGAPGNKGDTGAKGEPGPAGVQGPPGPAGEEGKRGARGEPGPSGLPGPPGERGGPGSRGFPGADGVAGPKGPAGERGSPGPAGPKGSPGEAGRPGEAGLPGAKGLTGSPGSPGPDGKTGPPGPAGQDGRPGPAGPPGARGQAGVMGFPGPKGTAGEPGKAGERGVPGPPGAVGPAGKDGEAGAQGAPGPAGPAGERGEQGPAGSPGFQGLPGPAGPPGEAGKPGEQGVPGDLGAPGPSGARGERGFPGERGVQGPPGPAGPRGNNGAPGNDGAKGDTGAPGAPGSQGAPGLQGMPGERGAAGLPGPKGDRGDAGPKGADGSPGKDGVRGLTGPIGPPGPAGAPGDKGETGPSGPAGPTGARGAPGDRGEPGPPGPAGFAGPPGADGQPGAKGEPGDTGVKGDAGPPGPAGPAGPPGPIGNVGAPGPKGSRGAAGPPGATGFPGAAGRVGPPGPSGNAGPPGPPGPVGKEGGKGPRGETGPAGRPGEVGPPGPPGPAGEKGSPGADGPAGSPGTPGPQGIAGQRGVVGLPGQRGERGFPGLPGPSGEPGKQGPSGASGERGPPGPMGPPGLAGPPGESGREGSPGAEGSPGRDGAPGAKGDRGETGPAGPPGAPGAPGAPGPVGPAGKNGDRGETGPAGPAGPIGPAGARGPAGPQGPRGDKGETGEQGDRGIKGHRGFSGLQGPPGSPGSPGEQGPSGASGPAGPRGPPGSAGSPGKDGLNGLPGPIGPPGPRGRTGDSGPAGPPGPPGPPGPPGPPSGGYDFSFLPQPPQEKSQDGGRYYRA
T1 sequence (P02466 86-1125 limits assumed): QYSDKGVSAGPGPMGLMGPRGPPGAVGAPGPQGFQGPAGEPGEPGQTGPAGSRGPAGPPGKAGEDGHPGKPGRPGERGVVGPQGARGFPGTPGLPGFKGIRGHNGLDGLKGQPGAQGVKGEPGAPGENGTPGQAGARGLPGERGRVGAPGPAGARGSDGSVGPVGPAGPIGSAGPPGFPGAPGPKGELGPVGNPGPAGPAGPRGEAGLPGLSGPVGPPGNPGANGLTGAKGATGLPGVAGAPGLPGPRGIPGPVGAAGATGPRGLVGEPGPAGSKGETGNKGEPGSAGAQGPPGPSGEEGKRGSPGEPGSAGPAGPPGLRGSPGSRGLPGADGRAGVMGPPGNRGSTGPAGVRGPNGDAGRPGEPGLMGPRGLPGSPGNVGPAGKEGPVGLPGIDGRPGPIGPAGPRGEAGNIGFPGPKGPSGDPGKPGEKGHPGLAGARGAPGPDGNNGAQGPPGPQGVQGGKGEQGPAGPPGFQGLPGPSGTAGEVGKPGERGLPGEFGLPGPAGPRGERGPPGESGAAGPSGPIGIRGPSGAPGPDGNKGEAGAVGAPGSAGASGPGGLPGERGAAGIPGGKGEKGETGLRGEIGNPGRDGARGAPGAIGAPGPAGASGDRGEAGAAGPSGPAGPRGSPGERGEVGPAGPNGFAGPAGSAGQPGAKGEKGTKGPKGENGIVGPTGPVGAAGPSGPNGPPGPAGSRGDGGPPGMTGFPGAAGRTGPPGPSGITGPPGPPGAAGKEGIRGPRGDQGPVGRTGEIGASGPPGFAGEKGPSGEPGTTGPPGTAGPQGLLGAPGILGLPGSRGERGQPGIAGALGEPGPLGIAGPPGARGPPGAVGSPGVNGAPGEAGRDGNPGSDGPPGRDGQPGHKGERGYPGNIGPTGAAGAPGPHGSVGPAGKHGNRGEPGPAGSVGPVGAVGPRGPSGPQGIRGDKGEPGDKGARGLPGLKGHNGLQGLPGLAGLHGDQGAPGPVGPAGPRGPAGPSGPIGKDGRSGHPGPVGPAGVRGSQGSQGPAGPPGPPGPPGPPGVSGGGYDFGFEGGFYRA

binding to collagen type I (collagen type I): predominantly
binding to collagen type IV (collagen type IV): predominantly
binding to elastin (elastin): predominantly
binding to the ECMs (for 17x-3: the ECMs other than hyaluronic acid) [1]: moderate binding
Sequence: KTKATVKIKNKQKSVNALKQKIVLLSK [Peptide 7c, 17x-3 variant]
Ellipticity ratio (222 nm/208 nm) [2]: 0.46
Ellipticity 208 nm [2]: −131
Ellipticity 222 nm [2]: −60.9
wavelength Minimum of CD profile [2]: 225 nm
Ellipticity ratio (222 nm/208 nm) ([2]; 20% TFE): 0.89
Ellipticity 208 nm ([2]; 20% TFE): −290
Ellipticity 222 nm ([2]; 20% TFE): −259
wavelength Minimum of CD profile ([2]; 20% TFE): 224 nm
